The record followed here is the supplement of paper PMC10065799, “High-throughput profiling of sequence recognition by tyrosine kinases and SH2 domains using bacterial peptide display” (eLife, 2023).

The subject of one data set is AncSZ. The experiment in a line: phosphorylation enrichment, bacterial display (enrichment ratio); higher = better substrate or ligand; peptides without Tyr show the background.
The target of another data set is EPHB1 (UniProt P54762). Described as above.
Another data set concerns the target EPHB2 (UniProt P29323). Described as above.
A further data set has as its target FGFR1 (UniProt P11362). The data set is described as above.
In the next data set the target is FGFR3 (UniProt P22607). The description is as above.
The subject of another data set is Fer (mouse). The description is as above.
The target of a further data set is Fes (UniProt P07332). The data set is described as above.
The target in a further data set is Fyn (UniProt P06241). The data set is described as above.
A further data set concerns the target Hck (UniProt P08631). The data set is described as above.
The target in another data set is Jak2 (UniProt O60674). The data set is described as above.
A further data set addresses MERTK (UniProt Q12866). The data set is described as above.
The subject of a further data set is c-Abl (mouse). The data set is described as above.
Another data set has as its system c-Src. The data set is described as above.
The target in another data set is Grb2 SH2 (UniProt P62993). The experiment in a line: SH2 binding enrichment of the phosphorylated peptide, bacterial display (enrichment ratio); higher = better substrate or ligand; peptides without Tyr show the background.
The target in a further data set is SHP2-C SH2. The data set is described as above.
In another data set the target is c-Src SH2. Described as above.
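For SH2 binding enrichment of the phosphorylated peptide, bacterial display in this document: peptide library displayed on the E. coli surface as eCPX fusions, selected cells deep-sequenced, score is each peptide's frequency after selection divided by its frequency in the input.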
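For phosphorylation enrichment, bacterial display in this document: 11-residue human phosphosite peptides and single-mutation variants displayed on the E. coli surface, counted by deep sequencing, each peptide's frequency after selection divided by its frequency in the unselected input library; frequency after pTyr selection over input frequency; kinase dosed for 20-30% of maximal phosphorylation in three min.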

Fyn, sequence (P06241 whole entry, looked up): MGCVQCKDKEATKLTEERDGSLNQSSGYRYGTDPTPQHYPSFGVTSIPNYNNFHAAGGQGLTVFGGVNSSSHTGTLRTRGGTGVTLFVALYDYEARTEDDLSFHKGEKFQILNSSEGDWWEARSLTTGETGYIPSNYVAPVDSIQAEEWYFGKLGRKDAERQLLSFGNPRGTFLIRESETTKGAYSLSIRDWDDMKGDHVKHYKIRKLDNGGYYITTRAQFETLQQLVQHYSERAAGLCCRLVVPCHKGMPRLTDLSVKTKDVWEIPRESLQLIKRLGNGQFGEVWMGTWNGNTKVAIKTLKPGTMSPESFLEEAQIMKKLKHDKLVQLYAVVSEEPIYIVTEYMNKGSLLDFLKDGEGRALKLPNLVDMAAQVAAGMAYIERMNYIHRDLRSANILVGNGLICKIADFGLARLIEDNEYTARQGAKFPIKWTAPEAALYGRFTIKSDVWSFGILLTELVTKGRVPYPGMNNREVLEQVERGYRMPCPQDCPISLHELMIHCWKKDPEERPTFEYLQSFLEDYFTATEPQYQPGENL
MERTK, sequence (Q12866 whole entry, looked up): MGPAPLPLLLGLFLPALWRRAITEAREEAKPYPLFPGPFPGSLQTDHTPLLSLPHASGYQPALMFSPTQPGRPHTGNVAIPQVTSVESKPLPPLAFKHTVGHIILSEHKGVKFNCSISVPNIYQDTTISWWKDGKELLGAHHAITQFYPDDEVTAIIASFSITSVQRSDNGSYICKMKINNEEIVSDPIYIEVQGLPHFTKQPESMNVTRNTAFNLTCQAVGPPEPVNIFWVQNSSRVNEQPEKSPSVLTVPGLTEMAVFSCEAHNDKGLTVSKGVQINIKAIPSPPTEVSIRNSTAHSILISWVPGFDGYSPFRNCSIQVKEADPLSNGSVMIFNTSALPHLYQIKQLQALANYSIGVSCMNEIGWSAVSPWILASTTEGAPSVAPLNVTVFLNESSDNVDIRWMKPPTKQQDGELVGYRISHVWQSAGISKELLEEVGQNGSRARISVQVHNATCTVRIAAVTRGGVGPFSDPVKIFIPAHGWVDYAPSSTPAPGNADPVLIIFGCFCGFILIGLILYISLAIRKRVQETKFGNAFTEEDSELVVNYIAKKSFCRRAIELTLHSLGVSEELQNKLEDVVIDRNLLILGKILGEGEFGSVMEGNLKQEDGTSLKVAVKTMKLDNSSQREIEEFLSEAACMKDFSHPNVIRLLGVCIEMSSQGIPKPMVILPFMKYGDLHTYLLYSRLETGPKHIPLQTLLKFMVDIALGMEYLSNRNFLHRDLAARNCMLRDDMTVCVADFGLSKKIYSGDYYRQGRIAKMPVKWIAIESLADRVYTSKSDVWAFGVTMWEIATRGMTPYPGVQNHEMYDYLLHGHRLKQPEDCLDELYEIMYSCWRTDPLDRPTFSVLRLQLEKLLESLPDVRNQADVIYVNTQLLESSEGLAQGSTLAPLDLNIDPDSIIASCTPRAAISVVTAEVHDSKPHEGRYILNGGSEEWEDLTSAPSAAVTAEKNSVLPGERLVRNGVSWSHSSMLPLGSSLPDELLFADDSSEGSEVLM
EPHB1, sequence (P54762 whole entry, looked up): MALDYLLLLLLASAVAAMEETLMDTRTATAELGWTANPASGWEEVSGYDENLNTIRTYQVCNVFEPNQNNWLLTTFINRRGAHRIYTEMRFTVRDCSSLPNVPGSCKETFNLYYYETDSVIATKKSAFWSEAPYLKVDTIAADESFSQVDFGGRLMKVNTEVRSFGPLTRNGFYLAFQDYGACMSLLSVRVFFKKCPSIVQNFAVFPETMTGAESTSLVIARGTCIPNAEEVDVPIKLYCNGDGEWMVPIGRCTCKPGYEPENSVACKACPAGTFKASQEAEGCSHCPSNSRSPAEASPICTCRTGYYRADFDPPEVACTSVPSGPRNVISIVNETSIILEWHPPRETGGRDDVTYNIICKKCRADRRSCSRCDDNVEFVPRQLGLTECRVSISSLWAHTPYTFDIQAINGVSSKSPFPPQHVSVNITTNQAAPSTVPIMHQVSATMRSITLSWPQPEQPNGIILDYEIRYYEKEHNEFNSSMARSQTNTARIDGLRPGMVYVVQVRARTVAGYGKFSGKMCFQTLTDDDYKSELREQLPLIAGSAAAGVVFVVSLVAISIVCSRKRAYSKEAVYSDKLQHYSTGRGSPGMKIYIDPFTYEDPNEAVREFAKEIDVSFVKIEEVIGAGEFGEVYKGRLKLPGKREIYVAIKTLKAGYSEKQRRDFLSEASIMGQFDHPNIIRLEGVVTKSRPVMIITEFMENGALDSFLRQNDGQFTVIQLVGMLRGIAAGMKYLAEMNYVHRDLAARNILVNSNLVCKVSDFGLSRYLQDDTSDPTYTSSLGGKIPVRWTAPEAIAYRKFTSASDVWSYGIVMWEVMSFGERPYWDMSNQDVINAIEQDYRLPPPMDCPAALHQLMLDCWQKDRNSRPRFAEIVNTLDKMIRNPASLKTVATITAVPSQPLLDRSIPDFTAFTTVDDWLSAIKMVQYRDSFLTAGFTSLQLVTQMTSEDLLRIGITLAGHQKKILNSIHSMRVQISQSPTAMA
Fes, sequence (P07332 whole entry, looked up): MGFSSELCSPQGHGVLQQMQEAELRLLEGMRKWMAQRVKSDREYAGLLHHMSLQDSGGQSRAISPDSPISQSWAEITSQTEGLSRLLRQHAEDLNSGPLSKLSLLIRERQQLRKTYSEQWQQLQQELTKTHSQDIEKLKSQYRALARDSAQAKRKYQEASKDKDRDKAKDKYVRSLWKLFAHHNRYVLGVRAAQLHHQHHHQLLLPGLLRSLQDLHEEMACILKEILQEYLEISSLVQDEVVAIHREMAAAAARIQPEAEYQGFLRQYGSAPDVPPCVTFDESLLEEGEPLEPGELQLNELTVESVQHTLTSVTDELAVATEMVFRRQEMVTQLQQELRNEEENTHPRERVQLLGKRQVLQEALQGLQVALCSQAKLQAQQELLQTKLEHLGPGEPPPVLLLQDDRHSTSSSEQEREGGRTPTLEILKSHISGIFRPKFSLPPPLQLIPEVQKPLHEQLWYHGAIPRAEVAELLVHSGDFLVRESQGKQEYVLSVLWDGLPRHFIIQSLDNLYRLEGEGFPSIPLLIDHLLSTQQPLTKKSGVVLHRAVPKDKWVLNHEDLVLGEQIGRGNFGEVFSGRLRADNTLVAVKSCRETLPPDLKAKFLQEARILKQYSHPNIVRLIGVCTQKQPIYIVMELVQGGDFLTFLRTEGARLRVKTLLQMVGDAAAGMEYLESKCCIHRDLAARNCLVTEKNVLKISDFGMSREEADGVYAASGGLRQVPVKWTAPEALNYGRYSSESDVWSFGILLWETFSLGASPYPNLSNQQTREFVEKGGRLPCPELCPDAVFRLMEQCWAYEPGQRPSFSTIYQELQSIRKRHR
Grb2 SH2, sequence (P62993 whole entry, looked up): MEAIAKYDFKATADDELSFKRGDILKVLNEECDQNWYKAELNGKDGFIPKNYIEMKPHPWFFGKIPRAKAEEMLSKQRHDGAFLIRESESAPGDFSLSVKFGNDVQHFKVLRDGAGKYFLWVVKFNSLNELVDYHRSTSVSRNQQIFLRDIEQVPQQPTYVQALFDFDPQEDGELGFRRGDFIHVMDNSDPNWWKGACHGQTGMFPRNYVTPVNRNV
Hck, sequence (P08631 whole entry, looked up): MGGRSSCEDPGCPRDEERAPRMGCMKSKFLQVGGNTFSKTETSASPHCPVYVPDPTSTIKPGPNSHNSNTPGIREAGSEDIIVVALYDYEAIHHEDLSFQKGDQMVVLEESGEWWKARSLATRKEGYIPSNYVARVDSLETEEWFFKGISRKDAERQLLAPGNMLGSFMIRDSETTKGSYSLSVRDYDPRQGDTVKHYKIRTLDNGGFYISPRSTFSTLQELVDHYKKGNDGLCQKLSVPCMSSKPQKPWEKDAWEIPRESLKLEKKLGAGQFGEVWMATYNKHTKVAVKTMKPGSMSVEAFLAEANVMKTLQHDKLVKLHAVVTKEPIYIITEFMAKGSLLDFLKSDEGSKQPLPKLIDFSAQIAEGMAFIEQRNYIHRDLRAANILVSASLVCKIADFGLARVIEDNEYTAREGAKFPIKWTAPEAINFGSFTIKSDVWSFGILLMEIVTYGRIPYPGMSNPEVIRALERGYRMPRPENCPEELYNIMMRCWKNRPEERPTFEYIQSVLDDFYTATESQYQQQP
FGFR1, sequence (P11362 whole entry, looked up): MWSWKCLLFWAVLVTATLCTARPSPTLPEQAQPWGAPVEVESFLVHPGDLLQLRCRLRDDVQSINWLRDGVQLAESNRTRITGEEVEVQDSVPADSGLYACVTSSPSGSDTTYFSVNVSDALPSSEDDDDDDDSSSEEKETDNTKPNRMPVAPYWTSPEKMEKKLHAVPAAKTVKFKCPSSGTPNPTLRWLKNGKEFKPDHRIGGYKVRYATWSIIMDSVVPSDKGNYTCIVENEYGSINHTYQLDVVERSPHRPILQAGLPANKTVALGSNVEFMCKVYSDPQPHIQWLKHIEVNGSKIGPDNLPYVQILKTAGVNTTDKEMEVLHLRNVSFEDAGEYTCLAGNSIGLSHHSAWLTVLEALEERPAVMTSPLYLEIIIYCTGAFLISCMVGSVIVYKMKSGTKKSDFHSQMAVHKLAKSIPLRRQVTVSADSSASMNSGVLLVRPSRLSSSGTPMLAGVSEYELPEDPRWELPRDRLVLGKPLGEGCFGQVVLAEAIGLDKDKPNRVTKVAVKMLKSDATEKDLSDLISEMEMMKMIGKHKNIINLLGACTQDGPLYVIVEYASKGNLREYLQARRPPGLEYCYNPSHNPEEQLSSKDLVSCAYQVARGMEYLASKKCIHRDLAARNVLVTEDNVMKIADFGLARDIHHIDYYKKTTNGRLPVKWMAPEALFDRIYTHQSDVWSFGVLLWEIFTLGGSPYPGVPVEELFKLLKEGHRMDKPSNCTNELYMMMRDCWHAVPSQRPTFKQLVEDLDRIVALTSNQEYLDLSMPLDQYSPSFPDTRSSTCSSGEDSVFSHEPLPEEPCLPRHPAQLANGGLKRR

Turning to IIEDPYYGNDS [ACP1_Y132], the phosphorylation enrichment in the data set on AncSZ was 1.46; with EPHB1, 0.561; with EPHB2, 0.623; with FGFR1, 0.851; in the data set with FGFR3 it was 0.869; with Fer (mouse) it was 0.632. Also, the phosphorylation enrichment with Fes was 1.22; with Fyn it was 0.958; with Hck, 0.918; with Jak2 it was 1.33; in the data set with MERTK it was 0.522; with c-Abl (mouse) it was 0.849. Besides, the phosphorylation enrichment with c-Src worked out at 2.73. The SH2 binding enrichment with Grb2 SH2 stood at 0.88; in the data set with SHP2-C SH2, 0.492; with c-Src SH2, 0.837.

IINENYDFLKV [NUP98_Y1664_G1669V_YF]: the phosphorylation enrichment worked out at 1.05 in the data set with AncSZ; 0.794 in the data set with EPHB1; 0.92 in the data set with EPHB2; 0.862 with FGFR1; 0.779 in the data set with FGFR3; 2.45 with Fer (mouse). Moreover, the phosphorylation enrichment with Fes stood at 1.01; with Fyn it was 0.512; with Hck, 2.17; with Jak2, 0.97; in the data set with MERTK, 0.838; with c-Abl (mouse), 0.668. For the same sequence, the phosphorylation enrichment in the data set with c-Src worked out at 0.655. The SH2 binding enrichment with Grb2 SH2 turned out to be 0.588; with SHP2-C SH2, 0.958; in the data set with c-Src SH2 it was 0.588.

In the case of IIRRLYLKWHP [SACS_Y4333], the phosphorylation enrichment in the data set with AncSZ stood at 1.04; with EPHB1, 0.508; with EPHB2, 0.543; with FGFR1 it was 0.474; with FGFR3, 0.596; with Fer (mouse), 0.453. Moreover, the phosphorylation enrichment stood at 0.904 in the data set with Fes; 0.535 with Fyn; 0.497 with Hck; 0.819 in the data set with Jak2; 0.612 in the data set with MERTK; 0.721 with c-Abl (mouse). In the data set with c-Src, the phosphorylation enrichment came to 0.571. Besides, the SH2 binding enrichment came to 0.768 with Grb2 SH2, 0.568 with SHP2-C SH2 and 0.34 in the data set with c-Src SH2.

For the sequence ILGRYYERGSI [PAX5_Y73_T75R], the phosphorylation enrichment came out at 0.449 in the data set on AncSZ; 0.493 in the data set with EPHB1; 0.531 with EPHB2; 0.466 in the data set with FGFR1; 0.552 with FGFR3; 0.474 with Fer (mouse). The phosphorylation enrichment with Fes was found to be 0.726; with Fyn, 0.498; with Hck, 0.495; with Jak2 it was 0.563; in the data set with MERTK, 0.408; with c-Abl (mouse), 0.519. The phosphorylation enrichment in the data set on c-Src came to 0.401. For the same sequence, the SH2 binding enrichment in the data set with Grb2 SH2 worked out at 0.889; with SHP2-C SH2, 0.671; with c-Src SH2 it was 0.84.

As for ILGRYYETSSI [PAX2_Y73_G76S], the phosphorylation enrichment came out at 0.724 in the data set with AncSZ; 0.527 in the data set with EPHB1; 0.476 in the data set with EPHB2; 0.86 with FGFR1; 0.802 in the data set with FGFR3; 0.629 in the data set on Fer (mouse). Moreover, the phosphorylation enrichment with Fes was found to be 0.705; in the data set with Fyn, 0.547; with Hck, 0.524; with Jak2, 0.632; with MERTK it was 0.594; in the data set with c-Abl (mouse) it was 0.55. For the same sequence, the phosphorylation enrichment with c-Src was 0.466. Besides, the SH2 binding enrichment with Grb2 SH2 turned out to be 0.782; with SHP2-C SH2, 1.02; with c-Src SH2, 2.39.

ILKPDYQPLAI [HYDIN_Y1072]: the phosphorylation enrichment stood at 0.613 in the data set with AncSZ; 0.489 in the data set with EPHB1; 0.403 with EPHB2; 0.376 with FGFR1; 0.533 with FGFR3; 0.379 in the data set with Fer (mouse). For the same sequence, the phosphorylation enrichment with Fes was found to be 0.65; with Fyn, 0.415; with Hck, 0.484; in the data set with Jak2, 0.556; with MERTK, 0.425; in the data set on c-Abl (mouse), 0.62. Besides, in the data set on c-Src, the phosphorylation enrichment was found to be 0.376. Besides, the SH2 binding enrichment is 0.814 with Grb2 SH2, 0.847 with SHP2-C SH2 and 0.541 with c-Src SH2.

In the case of IPGRFYETGSI [PAX2_Y73_L69P_YF], the phosphorylation enrichment in the data set on AncSZ came out at 0.733; in the data set with EPHB1, 0.441; with EPHB2 it was 0.858; with FGFR1, 0.635; in the data set with FGFR3, 0.614; in the data set with Fer (mouse) it was 0.357. The phosphorylation enrichment in the data set with Fes was 0.723; with Fyn, 0.492; in the data set with Hck it was 0.517; in the data set with Jak2, 0.662; in the data set with MERTK it was 0.415; in the data set on c-Abl (mouse), 0.552. Moreover, the phosphorylation enrichment with c-Src amounted to 0.549. For the same sequence, the SH2 binding enrichment in the data set with Grb2 SH2 stood at 0.841; in the data set with SHP2-C SH2 it was 0.803; with c-Src SH2, 1.11.

Consider IQRSLYDRPAS [PDGFRA_Y762], for which the phosphorylation enrichment in the data set with AncSZ was found to be 0.699; in the data set with EPHB1, 0.488; in the data set with EPHB2, 0.479; in the data set with FGFR1, 0.489; with FGFR3, 0.469; in the data set on Fer (mouse) it was 0.988. In addition, the phosphorylation enrichment with Fes was 0.643; with Fyn, 0.613; in the data set with Hck, 1.59; with Jak2, 0.577; with MERTK, 0.689; in the data set with c-Abl (mouse), 0.541. Further, the phosphorylation enrichment in the data set on c-Src was 0.458. Further, the figures for the SH2 binding enrichment with Grb2 SH2, in the data set with SHP2-C SH2 and with c-Src SH2 were 0.83, 0.543 and 1.98, respectively.
